Each block holds one binder with its values, some of them ahead of it.
Experiments:
[1] = molecular target: T1, NKp30 coated on the ELISA plate (Example 14) (UniProt O14931 19-135); test: ELISA
T1 chain: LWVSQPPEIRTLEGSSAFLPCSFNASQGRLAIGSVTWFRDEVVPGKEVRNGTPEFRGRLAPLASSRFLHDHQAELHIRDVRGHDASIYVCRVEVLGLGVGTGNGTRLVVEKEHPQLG

[2] = molecular target: T1, NKp30 coated on the ELISA plate …; test: competition ELISA; blocking of B7-H6 binding to NKp30

Kd [1]: 0.578 nM | IC50 [2]: 29.4 nM
B1: BJM1042 (bispecific anti-TRBC1/NKp30 antibody) (bispecific antibody)
heavy: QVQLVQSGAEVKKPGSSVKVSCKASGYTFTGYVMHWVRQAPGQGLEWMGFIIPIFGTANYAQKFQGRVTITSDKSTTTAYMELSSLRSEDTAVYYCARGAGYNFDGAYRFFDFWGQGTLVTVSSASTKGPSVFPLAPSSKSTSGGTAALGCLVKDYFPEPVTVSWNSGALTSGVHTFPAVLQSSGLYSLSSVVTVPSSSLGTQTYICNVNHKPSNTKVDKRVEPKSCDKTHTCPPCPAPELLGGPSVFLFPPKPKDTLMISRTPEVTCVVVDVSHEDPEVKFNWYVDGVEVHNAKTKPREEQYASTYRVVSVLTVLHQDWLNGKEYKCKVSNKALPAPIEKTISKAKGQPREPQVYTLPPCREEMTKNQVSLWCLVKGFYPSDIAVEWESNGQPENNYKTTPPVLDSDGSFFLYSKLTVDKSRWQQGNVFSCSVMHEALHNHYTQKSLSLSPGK
light: DVVMTQSPLSLPVTLGQPASISCRSSQRLVHSNGNTYLHWYQQRPGQSPRLLIYRVSNRFPGVPDRFSGSGSGTDFTLKISRVEAEDVGVYFCSQSTHVPYTFGGGTKVEIKRTVAAPSVFIFPPSDEQLKSGTASVVCLLNNFYPREAKVQWKVDNALQSGNSQESVTEQDSKDSTYSLSSTLTLSKADYEKHKVYACEVTHQGLSSPVTKSFNRGEC
chain: EIQLLESGGGLVQPGGSLRLSCAVSGFSITTTGYHWNWVRQAPGKGLEWVGYIYSSGSTSYNPSLKSRFTISRDTSKNTFYLQMNSLRAEDTAVYYCARGDWHYFDYWGQGTMVTVSSGGGGSGGGGSGGGGSGGGGSDSVTTQSPLSLPVTLGQPASISCSGEKLSDKYVHWYQQRPGQSPRMLIYENDRRPSGVPDRFSGSNSGNDATLKISRVEAEDVGVYFCQFWDSTNSAVFGGGTKVEIKDKTHTCPPCPAPELLGGPSVFLFPPKPKDTLMISRTPEVTCVVVDVSHEDPEVKFNWYVDGVEVHNAKTKPREEQYASTYRVVSVLTVLHQDWLNGKEYKCKVSNKALPAPIEKTISKAKGQPREPQVCTLPPSREEMTKNQVSLSCAVKGFYPSDIAVEWESNGQPENNYKTTPPVLDSDGSFFLVSKLTVDKSRWQQGNVFSCSVMHEALHNHYTQKSLSLSPGK

Kd [1]: 6.56 nM
B2: B7-H6 (ligand)
chain: DLKVEMMAGGTQITPLNDNVTIFCNIFYSQPLNITSMGITWFWKSLTFDKEVKVFEFFGDHQEAFRPGAIVSPWRLKSGDASLRLPGIQLEEAGEYRCEVVVTPLKAQGTVQLEVVASPASRLLLDQVGMKENEDKYMCESSGFYPEAINITWEKQTQKFPHPIEISEDVITGPTIKNMDGTFNVTSCLKLNSSQEDPGTVYQCVVRHASLHTPLRSNFTLTAARHSLSETEKTDNFS
